Measured values taken from patent publication US6987008B1, “Variant nucleoside-5′-phosphate producing enzyme” (priority 1999, dated 2006).

Assays:
[1] = tested on: Nc1nc2c(ncn2[C@@H]2O[C@H](CO)[C@@H](O)[C@H]2O)c(=O)[nH]1; assay: Km for inosine and guanosine, transphosphorylation by EA-AP mutant of pENP510; format: biochemical, Enterobacter aerogenes IFO12010; settings: other: transphosphorylation, 100 μmol/ml sodium pyrophosphate, pH 4.0, 30° C., 10 min, cell free extract, Hanes-Woolf
Description: (§1) The mutations were introduced into the plasmid DNA by using Quick Change site-directed mutagenesis kit produced by Stratagene. Twenty kinds of oligonucleotides (Table 12) for introduction of mutation from MUT180 (SEQ ID NO: 101) to […] (SEQ ID NO: 120) were synthesized by using a DNA synthesizer (Model 394 produced by Applied Biosystem). The mutations were introduced according to the protocol of Stratagene by using pENP170 as the first template and MUT180 and MUT181 as oligonucleotides for introduction of mutation.
(§2) By using a plasmid introduced with a mutation as a new template, the same procedure was repeated to cumulatively introduce site-specific mutations. Plasmids were prepared from the transformants by the alkali lysis method, and their nucleotide sequences were determined to confirm that the target nucleotides were replaced. […]
(§3) Escherichia coli JM109/pENP180, Escherichia coli JM109/pENP320, Escherichia coli JM109/pENP340, Escherichia coli JM109/pENP410, Escherichia coli JM109/pENP510 and Escherichia coli JM109/pENP520, which were introduced with a plasmid containing each mutant acid phosphatase gene, were each inoculated to 50 ml of L medium containing 100 µg/ml of ampicillin and 1 mM of IPTG, and cultured at 37° C. for 16 hours. […] Km values for inosine and guanosine in the transphosphorylation reaction were measured by using each cell free extract. […]

[2] = tested on: OC[C@H]1O[C@@H](n2cnc3c(O)ncnc32)[C@H](O)[C@@H]1O; assay: as above; format: biochemical, Enterobacter aerogenes IFO12010; settings: other: transphosphorylation, 100 μmol/ml sodium pyrophosphate, pH 4.0, 30° C., 10 min, cell free extract, Hanes-Woolf
Description: as §1, §2, §3

[3] = tested on: Nc1nc2c(ncn2[C@@H]2O[C@H](CO)[C@@H](O)[C@H]2O)c(=O)[nH]1; assay: Km for inosine and guanosine, transphosphorylation by EA-AP mutant of pENP410; format: biochemical, Enterobacter aerogenes IFO12010; settings: other: transphosphorylation, 100 μmol/ml sodium pyrophosphate, pH 4.0, 30° C., 10 min, cell free extract, Hanes-Woolf
Description: as §1, §2, §3

[4] = tested on: OC[C@H]1O[C@@H](n2cnc3c(O)ncnc32)[C@H](O)[C@@H]1O; assay: as above; format: biochemical, Enterobacter aerogenes IFO12010; settings: other: transphosphorylation, 100 μmol/ml sodium pyrophosphate, pH 4.0, 30° C., 10 min, cell free extract, Hanes-Woolf
Description: as §1, §2, §3

[5] = tested on: Nc1nc2c(ncn2[C@@H]2O[C@H](CO)[C@@H](O)[C@H]2O)c(=O)[nH]1; assay: Km for inosine and guanosine, transphosphorylation by EA-AP mutant of pENP520; format: biochemical, Enterobacter aerogenes IFO12010; settings: other: transphosphorylation, 100 μmol/ml sodium pyrophosphate, pH 4.0, 30° C., 10 min, cell free extract, Hanes-Woolf
Description: as §1, §2, §3

[6] = tested on: OC[C@H]1O[C@@H](n2cnc3c(O)ncnc32)[C@H](O)[C@@H]1O; assay: as above; format: biochemical, Enterobacter aerogenes IFO12010; settings: other: transphosphorylation, 100 μmol/ml sodium pyrophosphate, pH 4.0, 30° C., 10 min, cell free extract, Hanes-Woolf
Description: as §1, §2, §3

[7] = tested on: Nc1nc2c(ncn2[C@@H]2O[C@H](CO)[C@@H](O)[C@H]2O)c(=O)[nH]1; assay: Km for inosine and guanosine, transphosphorylation by EA-AP mutant of pENP180 (parent); format: biochemical, Enterobacter aerogenes IFO12010; settings: other: transphosphorylation, 100 μmol/ml sodium pyrophosphate, pH 4.0, 30° C., 10 min, cell free extract, Hanes-Woolf
Description: (§4) As a gene for introducing a mutation, a plasmid pENP170 that contained a mutant EA-AP gene coding for L61Q/A63Q/E64A/N67D/S69A/G72D/T133K/E134D/I151T mutant EA-AP was used. pENP170 was prepared as follows.
(§5) As described above, a mutant gene was constructed, in which the nucleotide sequence of −10 region of the deduced promoter sequence located upstream from the coding region of the deduced acid phosphatase derived from Enterobacter aerogenes IFO12010 was changed from AAAAAT to TATAAT, which was the same as lac promoter of Escherichia coli. The plasmid containing this mutant gene was designated as pENP180.
as §3, with “hours. The cells were suspended in 50 mL of 100 mM potassium phosphate buffer (pH 7.0), and disrupted by sonication at 4° C. for 20 minutes.[…]” for “hours.”

[8] = tested on: OC[C@H]1O[C@@H](n2cnc3c(O)ncnc32)[C@H](O)[C@@H]1O; assay: as above; format: biochemical, Enterobacter aerogenes IFO12010; settings: other: transphosphorylation, 100 μmol/ml sodium pyrophosphate, pH 4.0, 30° C., 10 min, cell free extract, Hanes-Woolf
Description: as §4, §5
as §3, with “hours. The cells were suspended in 50 mL of 100 mM potassium phosphate buffer (pH 7.0), and disrupted by sonication at 4° C. for 20 minutes.[…]” for “hours.”

[9] = tested on: Nc1nc2c(ncn2[C@@H]2O[C@H](CO)[C@@H](O)[C@H]2O)c(=O)[nH]1; assay: Km for inosine and guanosine, transphosphorylation by EA-AP mutant of pENP320; format: biochemical, Enterobacter aerogenes IFO12010; settings: other: transphosphorylation, 100 μmol/ml sodium pyrophosphate, pH 4.0, 30° C., 10 min, cell free extract, Hanes-Woolf
Description: as §1, §2, §3

[10] = tested on: OC[C@H]1O[C@@H](n2cnc3c(O)ncnc32)[C@H](O)[C@@H]1O; assay: as above; format: biochemical, Enterobacter aerogenes IFO12010; settings: other: transphosphorylation, 100 μmol/ml sodium pyrophosphate, pH 4.0, 30° C., 10 min, cell free extract, Hanes-Woolf
Description: as §1, §2, §3

[11] = substrate: OC[C@H]1O[C@@H](n2cnc3c(O)ncnc32)[C@H](O)[C@@H]1O; assay: Km for inosine, transphosphorylation by A72E/10-residue replaced mutant EB-AP; format: biochemical, Escherichia blattae; settings: other: transphosphorylation, 100 mM sodium pyrophosphate, 10–100 mM inosine, pH 4, 30° C., 10 min, cell free extract, Hanes-Woolf
Description: Then, the Km value for inosine in the transphosphorylation reaction by each 3-residue replaced mutant EB-AP was measured under the following conditions. A reaction mixture (1 ml) containing 100 mM sodium pyrophosphate, 100 mM acetate buffer (pH 4.0), 10–100 mM inosine and 100 μl of the cell free extract was incubated at pH 4 and 30° C. for 10 minutes. After 200 μl of 1 N hydrochloric acid was added to stop the reaction, the precipitates were removed by centrifugation, and the produced 5′-inosinic acid was quantified. The Km value was calculated by the Hanes-Woolf plotting.
5′-Inosinic acid was analyzed by high performance liquid chromatography (HPLC) under the following conditions. • Column: Cosmosil 5C18-AR (4.6×150 mm), produced by Nakarai Tesque • Mobile phase: 5 mM potassium phosphate buffer (pH 2.8)/methanol=95/5 • Flow rate: 1.0 ml/min • Temperature: room temperature • Detection: UV 245 nm
The S72F mutation that decreased the Km value in the highest degree and the S72E mutation that enhanced the activity in the highest degree in Example 12 were introduced into the 10-residue replaced mutant EB-AP. Since Ser72 was replaced with Ala in the 10-residue replaced mutant EB-AP, the A72F and A72E mutations were actually introduced. […] Furthermore, transphosphorylation activity and reaction rate constant were measured by the method described in Example 12. […]

[12] = substrate: OC[C@H]1O[C@@H](n2cnc3c(O)ncnc32)[C@H](O)[C@@H]1O; assay: Km for inosine, transphosphorylation by A72E/L140K/10-residue replaced mutant EB-AP; format: biochemical, Escherichia blattae; settings: other: transphosphorylation, 100 mM sodium pyrophosphate, 10–100 mM inosine, pH 4, 30° C., 10 min, cell free extract, Hanes-Woolf
[13] = substrate: OC[C@H]1O[C@@H](n2cnc3c(O)ncnc32)[C@H](O)[C@@H]1O; assay: Km for inosine, transphosphorylation by A72E/L140F/10-residue replaced mutant EB-AP; format: biochemical, Escherichia blattae; settings: other: transphosphorylation, 100 mM sodium pyrophosphate, 10–100 mM inosine, pH 4, 30° C., 10 min, cell free extract, Hanes-Woolf

Enterobacter aerogenes IFO12010 acid phosphatase (EA-AP) mutant encoded by pENP510, L61Q/A63Q/E64A/N67D/S69A/A70E/G72D/T133K/E134D/T149G/I151S (parent SEQ ID NO: 10) (Klebsiella aerogenes KCTC 2190; A83Q/A90E/E154D/E84A/G92D/I171S/L81Q/N87D/S89A/T153K/T169G)
Km [1]: 4.0 mM | Km [2]: 17 mM

Enterobacter aerogenes IFO12010 acid phosphatase (EA-AP) mutant encoded by pENP410, L61Q/A63Q/E64A/N67D/S69A/A70V/G72D/T133K/E134D/T149A/I151S (parent SEQ ID NO: 10) (Klebsiella aerogenes KCTC 2190; A83Q/A90V/E154D/E84A/G92D/I171S/L81Q/N87D/S89A/T153K/T169A)
Km [3]: 4.9 mM | Km [4]: 18 mM

Enterobacter aerogenes IFO12010 acid phosphatase (EA-AP) mutant encoded by pENP520, L61Q/A63Q/E64A/N67D/S69A/A70K/G72D/T133K/E134D/T149G/I151S (parent SEQ ID NO: 10) (Klebsiella aerogenes KCTC 2190; A83Q/A90K/E154D/E84A/G92D/I171S/L81Q/N87D/S89A/T153K/T169G)
Km [5]: 4.4 mM | Km [6]: 46 mM

Enterobacter aerogenes IFO12010 acid phosphatase (EA-AP) mutant encoded by pENP180, L61Q/A63Q/E64A/N67D/S69A/G72D/T133K/E134D/I151T, SEQ ID NO: 10 (Klebsiella aerogenes KCTC 2190; A83Q/E154D/E84A/G92D/I171T/L81Q/N87D/S89A/T153K)
Km [7]: 40 mM | Km [8]: 40 mM

Enterobacter aerogenes IFO12010 acid phosphatase (EA-AP) mutant encoded by pENP320, L61Q/A63Q/E64A/N67D/S69A/A70V/G72D/E102L/T133K/E134D/T149S/I151S (parent SEQ ID NO: 10) (Klebsiella aerogenes KCTC 2190; A83Q/A90V/E122L/E154D/E84A/G92D/I171S/L81Q/N87D/S89A/T153K/T169S)
Km [9]: 4.6 mM | Km [10]: 19 mM

B1: Escherichia blattae acid phosphatase (EB-AP, SEQ ID NO: 2 / 124) mutant A72E/10-residue replaced (L63Q/A65Q/E66A/N69D/S71A/S72A/G74D/T135K/E136D/I153T with … (protein)
chain: LVATGNDTTTKPDLYYLKNSEAINSLALLPPPPAVGSIAFLNDQAMYEQGRLLRNTERGKQAQADADLAEGDVANAFSGAFGSPITEKDAPALHKLLTNMIEDAGDLATRSAKDHYMRIRPFAFYGVSTCNTKDQDKLSKNGSYPSGHTSTGWATALVLAEINPQRQNEILKRGYELGQSRVICGYHWQSDVDAARVVGSAVVATLHTNPAFQQQLQKAKAEFAQHQKK
Km [11]: 15 mM

B2: Escherichia blattae acid phosphatase (EB-AP, SEQ ID NO: 2 / 124) mutant A72E/L140K/10-residue replaced (L63Q/A65Q/E66A/N69D/S71A/S72A/G74D/T135K/E136D/I153T … (protein)
chain: LVATGNDTTTKPDLYYLKNSEAINSLALLPPPPAVGSIAFLNDQAMYEQGRLLRNTERGKQAQADADLAEGDVANAFSGAFGSPITEKDAPALHKLLTNMIEDAGDLATRSAKDHYMRIRPFAFYGVSTCNTKDQDKKSKNGSYPSGHTSTGWATALVLAEINPQRQNEILKRGYELGQSRVICGYHWQSDVDAARVVGSAVVATLHTNPAFQQQLQKAKAEFAQHQKK
Km [12]: 78 mM

B3: Escherichia blattae acid phosphatase (EB-AP, SEQ ID NO: 2 / 124) mutant A72E/L140F/10-residue replaced (L63Q/A65Q/E66A/N69D/S71A/S72A/G74D/T135K/E136D/I153T … (protein)
chain: LVATGNDTTTKPDLYYLKNSEAINSLALLPPPPAVGSIAFLNDQAMYEQGRLLRNTERGKQAQADADLAEGDVANAFSGAFGSPITEKDAPALHKLLTNMIEDAGDLATRSAKDHYMRIRPFAFYGVSTCNTKDQDKFSKNGSYPSGHTSTGWATALVLAEINPQRQNEILKRGYELGQSRVICGYHWQSDVDAARVVGSAVVATLHTNPAFQQQLQKAKAEFAQHQKK
Km [13]: 9 mM
